# Assay results taken from paper PMC11417369, “DNA sequence and chromatin differentiate sequence-specific transcription factor binding in the human malaria parasite Plasmodium falciparum”.
# T1: AP2-G D1 (Plasmodium falciparum, UniProt Q8I5I9 2123-2245)
# T1 sequence: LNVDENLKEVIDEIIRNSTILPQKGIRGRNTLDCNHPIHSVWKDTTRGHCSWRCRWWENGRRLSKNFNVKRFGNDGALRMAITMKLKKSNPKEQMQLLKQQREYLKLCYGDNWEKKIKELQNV
# Target: T1, AP2-G D1
# Assay: gcPBM; about 25 ug protein; PBS, 1% milk, 0.2 mg/ml BSA, salmon testes DNA, 0.03% Triton X-100
# Conditions: tags: N-terminal GST (pGEX-4T-1), kept; label: surface-attached array probe
row,Binder,binding signal
1,XGTACX_negctrl_site539 (dsDNA) DNA 1: TAAGGATAAATAAAATGAAATGAAATAAATAAATGA DNA 2: TCATTTATTTATTTCATTTCATTTTATTTATCCTTA,"9.56 ln median PBM intensity, better of two orientations"
2,XGTACX_negctrl_site513 (dsDNA) DNA 1: GAAAAAAAAAAAAAAAGAAAATTCATATTTTTAATA DNA 2: TATTAAAAATATGAATTTTCTTTTTTTTTTTTTTTC,"9.66 ln median PBM intensity, better of two orientations"
3,XGTACX_negctrl_site42 (dsDNA) DNA 1: AATGAATAACAATACTATATGATTTTTAATACATTA DNA 2: TAATGTATTAAAAATCATATAGTATTGTTATTCATT,"9.52 ln median PBM intensity, better of two orientations"
4,XGTACX_negctrl_site159 (dsDNA) DNA 1: TACAAAAAGAATGAAAAATATATAATAAAAATAAAA DNA 2: TTTTATTTTTATTATATATTTTTCATTCTTTTTGTA,"9.63 ln median PBM intensity, better of two orientations"
5,XGTACX_negctrl_site367 (dsDNA) DNA 1: ATAAAATGATGTATCTGTGTATGTTTATTTTGTTTT DNA 2: AAAACAAAATAAACATACACAGATACATCATTTTAT,"9.53 ln median PBM intensity, better of two orientations"
6,XGTACX_negctrl_site407 (dsDNA) DNA 1: AATATATATATAAATAATATACCTATATATTTTTTG DNA 2: CAAAAAATATATAGGTATATTATTTATATATATATT,"9.52 ln median PBM intensity, better of two orientations"
7,XGTACX_negctrl_site1 (dsDNA) DNA 1: TACAAACAAACACATAGCAATATATGTTATCAAAAA DNA 2: TTTTTGATAACATATATTGCTATGTGTTTGTTTGTA,"9.63 ln median PBM intensity, better of two orientations"
8,XGTACX_negctrl_site427 (dsDNA) DNA 1: TTCTATATTTTAGCTGATAATATTATGAGCTTCACT DNA 2: AGTGAAGCTCATAATATTATCAGCTAAAATATAGAA,"9.67 ln median PBM intensity, better of two orientations"
9,XGTACX_negctrl_site298 (dsDNA) DNA 1: AGTTTTTATTAAAACAAAATTTAATTATAACGTTGA DNA 2: TCAACGTTATAATTAAATTTTGTTTTAATAAAAACT,"9.58 ln median PBM intensity, better of two orientations"
10,XGTACX_negctrl_site357 (dsDNA) DNA 1: ATAATTATATAAATATATATAATATATATATGAAAA DNA 2: TTTTCATATATATATTATATATATTTATATAATTAT,"9.61 ln median PBM intensity, better of two orientations"
11,XGTACX_negctrl_site221 (dsDNA) DNA 1: TATTTTATAAATACAAGTAAAATTAAATATATAATA DNA 2: TATTATATATTTAATTTTACTTGTATTTATAAAATA,"9.64 ln median PBM intensity, better of two orientations"
12,XGTACX_negctrl_site400 (dsDNA) DNA 1: AATAATGAAACAGGAAAAAAATATTGTTAAAATGTA DNA 2: TACATTTTAACAATATTTTTTTCCTGTTTCATTATT,"9.6 ln median PBM intensity, better of two orientations"
13,XGTACX_negctrl_site278 (dsDNA) DNA 1: TAATATTTCTTATTTTATATTTGTATATGAATGGAT DNA 2: ATCCATTCATATACAAATATAAAATAAGAAATATTA,"9.65 ln median PBM intensity, better of two orientations"
14,XGTACX_negctrl_site355 (dsDNA) DNA 1: AAAGGGGAAAATATTATACATATAATAAATCCGTAT DNA 2: ATACGGATTTATTATATGTATAATATTTTCCCCTTT,"9.67 ln median PBM intensity, better of two orientations"
15,XGTACX_negctrl_site55 (dsDNA) DNA 1: ATGGAATATTTCATGATTTTTTTAATTTTTTTATTG DNA 2: CAATAAAAAAATTAAAAAAATCATGAAATATTCCAT,"9.52 ln median PBM intensity, better of two orientations"
16,XGTACX_negctrl_site318 (dsDNA) DNA 1: GAAAAAAGGAAATAAAGAAAAAAAAAAATGAAATAT DNA 2: ATATTTCATTTTTTTTTTTCTTTATTTCCTTTTTTC,"9.53 ln median PBM intensity, better of two orientations"
17,XGTACX_negctrl_site72 (dsDNA) DNA 1: CTTTCAAAATTATTTATAGTATCTCATATTTTAGTA DNA 2: TACTAAAATATGAGATACTATAAATAATTTTGAAAG,"9.65 ln median PBM intensity, better of two orientations"
18,XGTACX_negctrl_site612 (dsDNA) DNA 1: TAAACATTTTTAATTTTGTAAAATTTTAAATAAAAA DNA 2: TTTTTATTTAAAATTTTACAAAATTAAAAATGTTTA,"9.56 ln median PBM intensity, better of two orientations"
19,XGTACX_negctrl_site118 (dsDNA) DNA 1: AAGGTATACACTGCTTTATCAAGTTTAACTCTTTTT DNA 2: AAAAAGAGTTAAACTTGATAAAGCAGTGTATACCTT,"9.62 ln median PBM intensity, better of two orientations"
20,XGTACX_negctrl_site479 (dsDNA) DNA 1: AATCAATTAATATTAGCATAAAATTTTATTATTTTG DNA 2: CAAAATAATAAAATTTTATGCTAATATTAATTGATT,"9.57 ln median PBM intensity, better of two orientations"
21,XGTACX_negctrl_site67 (dsDNA) DNA 1: AACAAATAAAGCTATGACATGTTAAAATTGTTTCAC DNA 2: GTGAAACAATTTTAACATGTCATAGCTTTATTTGTT,"9.59 ln median PBM intensity, better of two orientations"
22,XGTACX_negctrl_site296 (dsDNA) DNA 1: AATGAATTTAATTCTACTATTTTTTTTTTAAATATT DNA 2: AATATTTAAAAAAAAAATAGTAGAATTAAATTCATT,"9.5 ln median PBM intensity, better of two orientations"

row,Binder,binding signal
1,XGTACX_negctrl_site528 (dsDNA) DNA 1: TTTTATCAAATATTTATTTTATACATAAATATTTAT DNA 2: ATAAATATTTATGTATAAAATAAATATTTGATAAAA,"9.58 ln median PBM intensity, better of two orientations"
2,XGTACX_negctrl_site47 (dsDNA) DNA 1: ATATATATATAATTATATAAAATATATCATATGTTA DNA 2: TAACATATGATATATTTTATATAATTATATATATAT,"9.64 ln median PBM intensity, better of two orientations"
3,XGTACX_negctrl_site418 (dsDNA) DNA 1: TTTTTTTTTTTTTTTTCTTTTTTTTTTTTAAATAAG DNA 2: CTTATTTAAAAAAAAAAAAGAAAAAAAAAAAAAAAA,"9.64 ln median PBM intensity, better of two orientations"
4,XGTACX_negctrl_site114 (dsDNA) DNA 1: TATTATTGTCATTTTTTTTTTTTTTTTTTCTATTTC DNA 2: GAAATAGAAAAAAAAAAAAAAAAAATGACAATAATA,"9.51 ln median PBM intensity, better of two orientations"
5,XGTACX_negctrl_site87 (dsDNA) DNA 1: GCATATTTTCCCTGTGAATAAAGTTTTTTTTTTTAT DNA 2: ATAAAAAAAAAAACTTTATTCACAGGGAAAATATGC,"9.67 ln median PBM intensity, better of two orientations"
6,XGTACX_negctrl_site434 (dsDNA) DNA 1: ATGCAACTATATATATATATTATATGTATGAATAAT DNA 2: ATTATTCATACATATAATATATATATATAGTTGCAT,"9.5 ln median PBM intensity, better of two orientations"
7,XGTACX_negctrl_site482 (dsDNA) DNA 1: AGAAAAAACAAAAGAGAAATGAAAAAAAAAAAAAAA DNA 2: TTTTTTTTTTTTTTTCATTTCTCTTTTGTTTTTTCT,"9.54 ln median PBM intensity, better of two orientations"
8,XGTACX_negctrl_site76 (dsDNA) DNA 1: TTATTATTTATTTTTTATTATTATTATTTTTTTTTA DNA 2: TAAAAAAAAATAATAATAATAAAAAATAAATAATAA,"9.62 ln median PBM intensity, better of two orientations"
9,XGTACX_negctrl_site308 (dsDNA) DNA 1: TACATAATTTAAAATTTTATAAGTTGTAATTCGTTT DNA 2: AAACGAATTACAACTTATAAAATTTTAAATTATGTA,"9.65 ln median PBM intensity, better of two orientations"
10,XGTACX_negctrl_site85 (dsDNA) DNA 1: TACATATTTTGTATATATTATTTATTTTATTAGTTT DNA 2: AAACTAATAAAATAAATAATATATACAAAATATGTA,"9.55 ln median PBM intensity, better of two orientations"
11,XGTACX_negctrl_site452 (dsDNA) DNA 1: TATCTCTACAAAATTTTATTCATTATTCATGTTATA DNA 2: TATAACATGAATAATGAATAAAATTTTGTAGAGATA,"9.53 ln median PBM intensity, better of two orientations"
12,XGTACX_negctrl_site240 (dsDNA) DNA 1: TTTTTTATAAAATTTTTTTTTTAAAATATTAAAACT DNA 2: AGTTTTAATATTTTAAAAAAAAAATTTTATAAAAAA,"9.66 ln median PBM intensity, better of two orientations"
13,XGTACX_negctrl_site143 (dsDNA) DNA 1: TATTTCGTAATTTAATAATATACAAGAAATATATAT DNA 2: ATATATATTTCTTGTATATTATTAAATTACGAAATA,"9.58 ln median PBM intensity, better of two orientations"
14,XGTACX_negctrl_site364 (dsDNA) DNA 1: ATAAAATATTAGACATTTATTAATATTACACATATC DNA 2: GATATGTGTAATATTAATAAATGTCTAATATTTTAT,"9.58 ln median PBM intensity, better of two orientations"
15,XGTACX_negctrl_site420 (dsDNA) DNA 1: AAAAAATAGAATATAAAAATAAAGGAATTAAATTAA DNA 2: TTAATTTAATTCCTTTATTTTTATATTCTATTTTTT,"9.64 ln median PBM intensity, better of two orientations"
16,XGTACX_negctrl_site340 (dsDNA) DNA 1: AAAAAATAAATAAACATAAATAAATAAATAAATATA DNA 2: TATATTTATTTATTTATTTATGTTTATTTATTTTTT,"9.52 ln median PBM intensity, better of two orientations"
17,XGTACX_negctrl_site207 (dsDNA) DNA 1: TTTTTATTTAATATTTTAAAAAAAAATCATTTTTAA DNA 2: TTAAAAATGATTTTTTTTTAAAATATTAAATAAAAA,"9.53 ln median PBM intensity, better of two orientations"
18,XGTACX_negctrl_site60 (dsDNA) DNA 1: TACAGTTTTTCTTTGAATTTATCAAGTTTTTTTCCC DNA 2: GGGAAAAAAACTTGATAAATTCAAAGAAAAACTGTA,"9.65 ln median PBM intensity, better of two orientations"
19,XGTACX_negctrl_site307 (dsDNA) DNA 1: CTTTATCTTCTCACGAAGATTGAATAAGGTATTCTT DNA 2: AAGAATACCTTATTCAATCTTCGTGAGAAGATAAAG,"9.6 ln median PBM intensity, better of two orientations"
20,XGTACX_negctrl_site148 (dsDNA) DNA 1: TTAAAACATATTTTGAATTAATATATTTTAATATTA DNA 2: TAATATTAAAATATATTAATTCAAAATATGTTTTAA,"9.55 ln median PBM intensity, better of two orientations"
21,XGTACX_negctrl_site466 (dsDNA) DNA 1: TTTATATTTATATAAATATAATATATATGAATTATA DNA 2: TATAATTCATATATATTATATTTATATAAATATAAA,"9.51 ln median PBM intensity, better of two orientations"
